Conditions in all cases: both partners purified
Test [1] concerns the target T1, norovirus GII.17 P‐domain (Norovirus GII.17, GenBank AKI30060 …, strain).
T1 construct: Cloned into a modified pMAL-c6T vector; also called P‐domain of GII.17 strain; norovirus P‐domain GII.17 strain; source: E. coli BL21 (DE3), purified (Ni-NTA Agarose, SEC Superdex 75)
T1 chain: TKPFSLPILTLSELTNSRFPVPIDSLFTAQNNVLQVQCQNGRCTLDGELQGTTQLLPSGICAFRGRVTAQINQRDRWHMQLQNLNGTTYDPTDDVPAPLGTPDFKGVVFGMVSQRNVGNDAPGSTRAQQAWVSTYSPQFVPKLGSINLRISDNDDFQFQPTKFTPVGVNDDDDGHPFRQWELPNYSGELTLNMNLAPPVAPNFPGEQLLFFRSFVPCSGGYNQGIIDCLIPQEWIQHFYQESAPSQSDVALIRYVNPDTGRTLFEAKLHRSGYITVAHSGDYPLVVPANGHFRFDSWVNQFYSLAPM
The test can be described thus: SPR; Biacore 8K; antibody immobilised, P-domain as analyte; 1:1 kinetic model.

In test [2] the target is T1, norovirus GII.17 P‐domain. The test can be described thus: SPR; Biacore 8K; P-domain immobilised on CM5 by amine coupling, antibody as analyte; PBST, 30 uL/min, 180 s association, 600 s dissociation; 1:1 kinetic model.
For test [3], the target named is T1, norovirus GII.17 P‐domain. The test can be described thus: SPR; GII.17 P-domain immobilised on CM5 at 4577 r.u., antibody as analyte; PBST; 1:1 kinetic model.
In test [4] the target is T1, norovirus GII.17 P‐domain. Put plainly: SPR; GII.17 P-domain immobilised on CM5 at 3830 r.u., antibody as analyte; PBST; 1:1 kinetic model.
Test [5] has as its target T1, norovirus GII.17 P‐domain. Put plainly: SPR; GII.17 P-domain immobilised on CM5 at 922 r.u., antibody as analyte; PBST; 1:1 kinetic model.
In test [6] the target is T1, norovirus GII.17 P‐domain. Put plainly: SPR; GII.17 P-domain immobilised on CM5 at 138 r.u., antibody as analyte; PBST; 1:1 kinetic model.
Test [7] addresses T1, norovirus GII.17 P‐domain. Put plainly: SPR; GII.17 P-domain immobilised on CM5 at 458 r.u., antibody as analyte; PBST; 1:1 kinetic model.
The target of test [8] is T1, norovirus GII.17 P‐domain. The test can be described thus: SPR; GII.17 P-domain immobilised on CM5 at 1059 r.u., antibody as analyte; PBST; 1:1 kinetic model.

B1: 14C2 IgG (antibody, V domains shown)
VH: QAYLQQSGAELMKPGASMRISCKATGYTFSNYWIEWVKQRPGHGLEWIGEILPGGGGTDYNEKFKGKATFTADTSSNTAYMQLSSLTSEDSAVYYCARSTFYGYDGGLYYFPMDYWGQGTSVTVSP
VL: DIVMTQSPAIMSASPGEKVTMTCSTNSSISYMHWYQQKPGTSPKRWIYDTSKLASGVPARFSGSGSGTSYSLTISSMEAEDAATYYCHQRSSYPWTFGGGTKLEIK
notes: variable domain of the heavy chain of 14C2; light chain of 14C2; Mouse IgG2b; also called IgG antibody 14C2; source: mouse hybridoma supernatant, purified (HiTrap Protein G HP, SEC Superdex 200); copies: 2 + 2
Take B1: in test [1], the affinity, expressed as Kd, was 1.55 nM; the off-rate (koff) is 0.000129 s⁻¹; the kon worked out at 82900 M⁻¹ s⁻¹. In test [2], the affinity, expressed as Kd, was 0.000921 nM; the off-rate constant (koff) was found to be 1.07e-07 s⁻¹; the association rate constant (kon) was 116000 M⁻¹ s⁻¹.

B2: 1‐arm IgG (Fab region of IgG antibody 14C2) (Fab, V domains shown)
VH: B1 VH
VL: B1 VL
notes: Fab region of the heavy chain of 14C2; light chain of 14C2; gene codon-optimised for mammalian cells; also called 14C2 Fab; source: Expi293 cells, purified (Ni-NTA Agarose, SEC Superdex 75); not shown: His tag (inferred from the Ni-NTA purification)
Turning to B2, the Kd in test [3] worked out at 167 nM; in test [4], 135 nM; in test [5] it was 281 nM; in test [6], 170 nM; in test [7], 241 nM; in test [8], 204 nM. The koff was determined as 0.0026 s⁻¹ in test [3]; 0.0034 s⁻¹ in test [4]; 0.0024 s⁻¹ in test [5]; 0.0025 s⁻¹ in test [6]; 0.00246 s⁻¹ in test [7]; 0.00297 s⁻¹ in test [8]. Besides, the kon in test [3] came to 15600 M⁻¹ s⁻¹; in test [4], 25100 M⁻¹ s⁻¹; in test [5] it was 8550 M⁻¹ s⁻¹; in test [6], 14700 M⁻¹ s⁻¹; in test [7], 10200 M⁻¹ s⁻¹; in test [8], 14600 M⁻¹ s⁻¹.

Values taken from PMC13140594, “Characterization of high affinity IgM and IgG monoclonal antibodies against norovirus variants GII.4 and GII.17” (Protein Science : A Publication of the Protein Society, 2026).
